Measurements: the nanobody polyreactivity screen of Harvey et al. (2022)

Test: yeast display, Sf9 membrane polyspecificity reagent, FACS + sequencing; frameworks hold sequencing errors
Summary of the method: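 Using colony PCR, genes from sorted yeast display clones were amplified, then sequenced on MiSeq at 2 × 250 and filtered by CDR length. The clones had been stained with 10% biotinylated, detergent-solubilized Sf9 membrane reagent for 1 hour at 4 °C and sorted by FACS into low and high (top ~1%) gates on anti-HA and streptavidin fluorescence. Polyreactivity labels come from the gate of origin.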
With “QDQLVESGGGLVQAGGSLRLSCAASGRTFDNYAMGWYRQAPGKERELVARITDTGGSTYYADSVKGRFTISRDNAKNTVYLQMNSLKPEDTAVYYCAADSYPFAWYWLYYYWGQGTQVTVSS” the “polyreactivity (PSR sort gate)” value was “low polyreactivity”.
In the case of “QVQLVESGGGLVQAGGSLRLRCAASGRTFFVYTMGWYRQAPGKERELVAAITSDTSTTYADSVKGRFTISRDNAKNTVYLQMISLKPEDTAVYYCAAEGYVGYYDYDYWGQGTQVTVSS”, the “polyreactivity (PSR sort gate)” value is reported as “low polyreactivity”.
For “QFQLVESGGGLVHAGGSLRLSCAATGSTLPGYAMGWYRQAPGKERELVAAITSRGGTTYYADSVKGRFTISCDNAKKTVYLQMNSLKPEDTAVYYCAAYTSYASDYWGQGTQVTVSS”, the “polyreactivity (PSR sort gate)” value was “high polyreactivity”.
For “QVQLVESVGGLVQAGGSLRLSCAPSGRTFYIYAMGRYRQAPGKERELVAAISISGSTYYADSVKGRFTISRDNAKNTVYLQMNSLKPEDTAVYYCAADYLDSTYGYVYGWDDYLGQGTQVTVSS”, the “polyreactivity (PSR sort gate)” value was “low polyreactivity”.
For “QVQLVESGGGLVQAGGSLRLSCAASGRTFYVYAMGWYRQAPGKERELVAAISQDDGGTYYADSVKGRFTISRDNAKNTVYLQMNSLKPEDTAVYYCAAKEWRYGYDYGYWGQGTQVTVSS”, the “polyreactivity (PSR sort gate)” value was “low polyreactivity”.
For “QVQLVESGGGLVQAGGSLRLSCAASGRIIGAYAMGWYRQAPGKERELVAAITSRGGNTYYADSVKGRITISRDNAKNTVYFQMNSLKPEDTAVYYCAAGVRAYNWCEYDYWGQGTQVTVSS”, the “polyreactivity (PSR sort gate)” value was “low polyreactivity”.
For “QVQLEESGGGLVQAGGRLRLSCAASGSIFGFYAMGWYRQAPGKERELVASITISGGSTYYADSVKGRFTISRDNAKNTVYLQMNSLKPEDTAVYYGAARRYWDYNYWGQGTQVTVSS”, the “polyreactivity (PSR sort gate)” value was “low polyreactivity”.
In the case of “QVQLVESGGGLVQAGGSLRLSCAASGFIFPRYVMGWSRQAPGKERELVAAINSDISTNYADSVKGRFTISRDNAKNTVYLQMNSLKPEDTAVYDCAAERWDDRWEFDYWGQGTQVTVSS”, the “polyreactivity (PSR sort gate)” value is reported as “low polyreactivity”.
In the case of “QVQLVESGAGLVQAGGSLRLCCAASGFIFYLNTMGWYRQAPGKERELVAGITWRGGTTYYADSVKGRFTISRDNAKNSVYLQMNSLKPEDTAVYYCAARRYSRPYSYGFYYWGQGTLVTVSS”, the “polyreactivity (PSR sort gate)” value is reported as “high polyreactivity”.
With “QVQLVESCGALVQAGGSLLLSCAASGRTFVVNDMGWYRHAPWKERELVATINVSGGSTSYEDSVKGRFTISRDNGKYTVYLQMTSLKPEDTAVYYCNVDTYVEYPHDYWGQGTQVTVSS” the “polyreactivity (PSR sort gate)” value was “low polyreactivity”.
For “QVQLVESGGGLVQAGGSLRLSCAASGSILSTYSMGCYRQAPGKERELVASISSNAGSTYYADSVKGRFTISRDNAKNTVYLQMNSLKPEDTAVYYCNKVYGGGTYDYWGQGTQVTVSS”, the “polyreactivity (PSR sort gate)” value was “low polyreactivity”.
For “QVQLVESGGGLVQAGGSLRLSCAASGSTFSVNAMGWYRQAPGKEREFVAAITGDGVTTYYADSVKGRFTISRDNAKNTVYLQMNSLKPEDTAVYYCAAEDIRQTTGYDYWGQGTQVTVSS”, the “polyreactivity (PSR sort gate)” value was “high polyreactivity”.
With “QVQLVESGGGLVQAGGSLRISCADSGSIFSLYAMGWYRPAAGKERELVAAIRRGGSTYYADSVKGRFTISRDNAKNTVYLQMNSLIPEDTAVYYCAADAYSGYSDYYWGQGTHVTVSS” the “polyreactivity (PSR sort gate)” value was “low polyreactivity”.
For “QVQLVESGGGLVQAGGSLRLTCAASGRTFEQNAMGWNRPAPGKERELVASITSVGSTDYADSVKGRFTISRDNAKNTVYLQMNSLKPEDTAVYYCAKTLGSQNYDFDYWGQGTQVTVSS”, the “polyreactivity (PSR sort gate)” value was “low polyreactivity”.
In the case of “QVQLVESGGGLVQAGGSLRLSCAASGSIFDVNAMGWYRQAPWKERELVAAISDSGGSTYYADSVKGRFTISRDNANNTVYLQMNSLKPEDTAVYYCNADWSWYNYYDFDYWGQGTQVTVSS”, the “polyreactivity (PSR sort gate)” value is reported as “low polyreactivity”.
In the case of “QVQLVETGGGLVQAGGSLRLSCAASGYIFYPYTMGSYRPAPGKATELVAAITWSGSTYSADSVQGRFTMSRDTAKNTVYLQMKSLKPEDTAVYYCAADFDSYDSYTYLQYDYWGQGTQVTVSS”, the “polyreactivity (PSR sort gate)” value is reported as “low polyreactivity”.
For “QVQLVESGGGLVQAGGSLRLSCAASGSILESNVMGWYRQAPGKERELVASISSSGDSTYADSVKGRFTISRDNAKNTVYLQMNSLKPEDTAVYYCNADRTQDRNPYTYATFDYWGQGTQVTVSS”, the “polyreactivity (PSR sort gate)” value was “low polyreactivity”.
With “QVQLVESGGGLVQAGGSLRLSCAASGSTFIRYTMGWYRQAPGKERELVAAISTGGTNYADSVKGRFTISRDNAKNTVYLQMYSLKPGDTAVYYCAKPSSPSLGGVSDRIYWGQGTQVTVSS” the “polyreactivity (PSR sort gate)” value was “low polyreactivity”.
In the case of “QVQLQESAGGMVQAGGSLRLRCSASGYISCDASMGWYRQAPGKERELAASITKGSRTNYADSVKGRFTIRDNAKNTVYLQMNSLKPEVTAVCYCAVTYPYWGDYTYWGQGTQVTVSS”, the “polyreactivity (PSR sort gate)” value is reported as “low polyreactivity”.
For “QVQLVESGGGLVQAGGSLRLSCAATGSILEYYVMGWYRLAPGKERELVAAIRGGGSTYYADAVKGRFTISRDNAKNSVYLQMNSLKPEDTAVEYCAKDSQPARDFDYWGQGTQVTVSS”, the “polyreactivity (PSR sort gate)” value was “low polyreactivity”.
With “QVQLVESGGGLVQAGGSLRLSCAASGVTFNYNAMGWYRQAPGKERELVATITGSTYYADSVKGRFTISRDNAKNTVYLQMNSLKPEDTAVYYCTADASLVLAEYDYWGQGTQVTVSS” the “polyreactivity (PSR sort gate)” value was “low polyreactivity”.
For “QVQLVESGGGLVQAGGSLRLSCAASGRTFGVYVMGWYRHAPGKERELVAFITISGGSTNYADSVKGRFTISRDNAKNTVYLQMNSLKPDDTAVYYCAARTYYGYDYWGQGNQVTVSS”, the “polyreactivity (PSR sort gate)” value was “high polyreactivity”.
For “QVQLVESGGGLVQAGGSLRLSCAASGRIFDQNAMGWYRQAPGKDRELVAAISSSGGRTYYADSVKGRFTISRDNAKNPVYLQMNSLKPEDTAVYYCNKDRTVTTYEYWGQGTQVTVSS”, the “polyreactivity (PSR sort gate)” value was “high polyreactivity”.
In the case of “QVQLVESGGGLVQAGGSLRLSCAASGRIFQYNTMGWYRQAPGKERELVARISWSGGSTRYADSVKGRFTISRDNAKNTVDLQMNSLKPEETEVYYCAVQEAYRYAHAYYYWGQGTQVTVSS”, the “polyreactivity (PSR sort gate)” value is reported as “high polyreactivity”.
In the case of “QVQLVESGGGLVQAGGSLRLSCAASGSTLWFNAMGLYRPAPGKERELVAAINWSGGSTYYADSVKGRFTISRDNAKNTVYLQMNSLKPEDTAVYYCAAVYQYVHYVWYDYWGQGTQVTVSS”, the “polyreactivity (PSR sort gate)” value is reported as “low polyreactivity”.
For “QVQLVESGGGLVQAGGSLRLSCAASGFIISVYAMGWYRPAPGKERELVARIDSGGSTYYADSVKGRFTISRDNAKNTVYLQMNSLKPEDTAVYYGATDEGTVGGQQLRPLMDYWGQGTQVTVSS”, the “polyreactivity (PSR sort gate)” value was “low polyreactivity”.
With “QVQLVESGGGLVQAGGSLRLSCAASGIIFYVNDMGWYREAPGKVRELVADISGGTSTNYADSVKGRFTISRDNAKNTVYLQMNSLKPEDTAVYYCATAFIVPFPGSDYWGQGTQVTVSS” the “polyreactivity (PSR sort gate)” value was “low polyreactivity”.
For “QVQLVESGGGLVQAGGSLRLSCAASGRTFYQYAMGWYRPAPGKERELVAAITTSGGSTYYADSVKGRFTNSRDNAKNTVYLQMNSLKPEDTAVYYCAAPYTGYRERGSYKSDYWGQGTQVTESS”, the “polyreactivity (PSR sort gate)” value was “low polyreactivity”.
With “QVQLVESGGGLVQAGGSLRLSSAASVSTVTPYAMGWYRQAPGKERELVAVISESGGSTYYADSVKGRFTISRDNAKNTVYLQMNSLKPEDTAVYYCAKASYPEVLYYFFRGYTFDSWGQGTQVTVSS” the “polyreactivity (PSR sort gate)” value was “low polyreactivity”.
For “QVQLVESGGGLVQAGGSLRLSCAASGSIFESYAMGWYRQAPGKEREFVAAISDSGADTYYADSVKGRFTISRDNAKNTVYLQMNSLKPEDTAVYYCNADKEFAVLGQGMDYWGQGTQVTVSS”, the “polyreactivity (PSR sort gate)” value was “low polyreactivity”.
In the case of “QVQLVESGGGLVQAGGSLRLSCAASGFNFYTNVMGWYRPAPGKERELVAAINSGGSTNYADSVKGRFTISRDNAKNTVYLQMNSLKPEDTAVYYCAARVARISVPYDYWGQGTQVTVSS”, the “polyreactivity (PSR sort gate)” value is reported as “low polyreactivity”.
In the case of “QVQLVESGGGLVQAGGSLRLSCAASGYTFLGYAMGWYRQAPGKERELVAAIRRSGGRPYYADSVKGRFTISRDNAKNTVYLQINRLKPEDTAVYYCAQGYVGEYDYWGQGTQVTVTS”, the “polyreactivity (PSR sort gate)” value is reported as “high polyreactivity”.
For “QVQLVESGGGLVQAGGSLRLSCAASGRTFYNNAMGWYRQAPGKERELVAVISRGGTTYYPDSVKGRFTISRDNAKNTVYLQMNSLKAEDTSVYYCAKQVPSGDSSSQMGSWGQGTQVTVSS”, the “polyreactivity (PSR sort gate)” value was “low polyreactivity”.
For “QVQLVESGGGLVQAGGSLRLSCAASGITFSFYAMGWYRQAPGKERELVAGITRSGGDTYYADSVKGRFTISRDNAKNTVYLQMNSLKPEDTAVYYCAAAWFFYRRQYTFFAGRMDYWGQGTQVTVSS”, the “polyreactivity (PSR sort gate)” value was “high polyreactivity”.
In the case of “QVQLVESGGGLVQAGGSLRLSCAASGFTFAWYTMGWYRQAPGKERELVAGIDWSGGSTYYADSVKGRFTISRDNAKNTVYLQMNSLKPEDTAVYYCNAAGLYYVYPGYDYWGQGTQVTVSS”, the “polyreactivity (PSR sort gate)” value is reported as “high polyreactivity”.
For “QVQLVESGGGLVQAGGSLRLSCAASGGTLRRYAMGWYRQAPGKERELVAAIIDRSGSTSYADSVKGRFTISRDNAKNTVYLQMNSLKPEDTAVYYCAARTYRTRYYYWGQGTQVTVSS”, the “polyreactivity (PSR sort gate)” value was “high polyreactivity”.
For “QVQLVESGGGLVQAGGSLRLSCAASGRTFFYYAMGWYRQATGKERELVAAITSSGGSTNYADSVKGRFTISRDNAKNTVYLQMNSLKPEDTAVYYCNRDRRLNRVPYFDYWGQGTQVTVSS”, the “polyreactivity (PSR sort gate)” value was “high polyreactivity”.
In the case of “QVQLVESGGGLVQAGGSLRLICAASGRTFYSKTMGWSRQAPGKEREFVAAIPSIVGSTYYADSVKGRFTISRDNAKITVYFKMNSLKPEDTAVYYCAVTDYYSYQLRYDSSGQGTQVTVSS”, the “polyreactivity (PSR sort gate)” value is reported as “low polyreactivity”.
For “QVQLVESGGGLVQAGGSLRLSCAASRFIFWPYAMGWYRPAPGKERELVAAITTGGSTNYADSVKGRFTISRDNAKNTVYFQMNSLKPEDTAVYYCAKGYYFGYYEFVYWGQGTQVTVSS”, the “polyreactivity (PSR sort gate)” value was “high polyreactivity”.
With “QVKLVESWRGLVPAGVSLRLSCAASVNILDYYAMGWYRQAPGNERELVASITSGGGTYYADSVKGRFTISRDNAKNTVYLQMNSLKPEDTAVYYCNAGPKRTYSPPWRVRYYDWGQGTQVTVSS” the “polyreactivity (PSR sort gate)” value was “high polyreactivity”.
In the case of “QVQLVESGGGLVQAGGSLRLSCAASGLIFRHYAMGWYRQAPGKERELVDAITRSGGSTNYADSVKGRFTISRDNAKNTVYLQMNSLKPEDTAVYYCNAGIRYFVVGRSSYDYWGQGTQVTVSS”, the “polyreactivity (PSR sort gate)” value is reported as “low polyreactivity”.
For “QVQLVESGGGLVQAGGSLRLSCAASGSILQRNAMGWYRQAPGKERELVAAISWSGDNTYYADSVKGRFTISRDNAKNTVYLQMNSLKPEDTAVYYCATDADIYFQEYDYWGQGTQVTVSS”, the “polyreactivity (PSR sort gate)” value was “low polyreactivity”.
For “QVQLVESGGGLVQAGGSLRLSCAASGGTFNGNTMGWYRQAPGKERELVAVIDWSGGSTYYADSVKGRFTISRDNAKNTVYLQMNSLKPEDTAVYYCNADSDAQFREPKGLYYWGQGTQVTVSS”, the “polyreactivity (PSR sort gate)” value was “low polyreactivity”.
